Source: patent US20190092852A1 (Genentech, published 2019)

T1: cyno IL-33 N-His (cynomolgus monkey)
T1 chain: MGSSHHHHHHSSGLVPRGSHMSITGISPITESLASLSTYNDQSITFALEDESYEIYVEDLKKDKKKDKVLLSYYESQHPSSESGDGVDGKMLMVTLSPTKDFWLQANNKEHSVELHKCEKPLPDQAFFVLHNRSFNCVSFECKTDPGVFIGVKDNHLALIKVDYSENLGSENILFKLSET

T2: cynomolgus monkey N-terminal 6-His-tagged and C-terminal Avi-tagged IL-33 (S112-T270) (cynomolgus monkey)
T2 chain: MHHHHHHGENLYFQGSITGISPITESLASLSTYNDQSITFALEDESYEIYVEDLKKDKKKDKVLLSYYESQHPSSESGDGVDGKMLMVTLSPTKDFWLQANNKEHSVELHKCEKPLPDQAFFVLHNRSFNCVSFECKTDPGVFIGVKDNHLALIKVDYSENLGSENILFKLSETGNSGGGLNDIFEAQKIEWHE

T3: biotinylated cyno IL-33 (cynomolgus monkey, UniProt A0A2K5W3I1 112-269, biotin-labeled with EZ-LINK NHS-PEG4-Biotin)
T3 construct: also called biotin-cyIL-33
T3 sequence: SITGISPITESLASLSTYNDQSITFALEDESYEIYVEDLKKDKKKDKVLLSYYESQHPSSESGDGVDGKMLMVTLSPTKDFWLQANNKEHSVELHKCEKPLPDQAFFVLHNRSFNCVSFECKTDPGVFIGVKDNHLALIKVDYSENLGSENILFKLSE


How the values were obtained:
[1] = molecular target: T1, cyno IL-33 N-His; assay: SPR Biacore T200, 25 C
Method: (§1) The binding kinetics of the anti-IL-33 antibody 10C12.38.H6.87Y.58I IgG4 and each anti-IL-33 antibody listed in Table 5 (RG1-RG20) to IL-33 were measured using surface plasmon resonance (SPR) on a BIACORE® T200 instrument (GE Healthcare). Anti-human Fc or anti-murine Fc (GE Healthcare, #BR-1008-39 or BR-1008-38, respectively) was immobilized on a CM5 sensor chip via amine-based coupling according to the manufacturer's protocol. Surfaces were used to capture monoclonal human IgG4 and monoclonal murine IgGs for kinetic studies. Antibody binding was measured to human IL-33 (R&D systems, #3625-IL-010/CF) and cyno IL-33 N-His (SEQ ID NO: 317) (Genentech, Inc.). A three-fold concentration series of cytokine with a range of 3.7 to 100 nM was used for the experiments. Sensograms for binding of IL-33 were recorded using an injection time of 4 min with a flow rate of 30 μl/minute with a running buffer of 0.01 M N-(2-Acetamido)iminodiacetic acid (ADA) pH 7.4, 0.15 M NaCl, 3 mM EDTA, and 0.05% TWEEN®-20. After injection, disassociation of the ligand from the antibody was monitored for 10 min in running buffer. The surface was regenerated in between cycles with an injection of 3 M magnesium chloride or Glycine-HCl pH 1.7. All binding experiments were performed at a temperature of 25′C and 37° C. After subtraction of a blank which contained running buffer only, sensograms observed for IL-33 binding to anti-IL-33 antibodies were analyzed using a 1:1 Langmuir binding model with software supplied by the manufacturer to calculate the kinetics and binding constants, including the dissociation constant (KD). Dissociative half-lives (t_{1/2}) were calculated from the kinetic rate constants. KD (M)=koff/kₒₙ and t_{1/2} (min)=ln(2)/(60*koff). […] In Tables 6-9, *IC indicates the result is inconclusive due to weak capture of antibody was observed, leading to poor binding data.

[2] = molecular target: T1, cyno IL-33 N-His; assay: SPR Biacore T200, 37 C
Method: as §1

[3] = molecular target: T2, cynomolgus monkey N-terminal …; assay: cell-based or functional assay
[4] = molecular target: T3, biotinylated cyno IL-33; assay: competitive ELISA, biotin-cyIL-33 to coated hST2-Fc
Method: The ability of the anti-IL-33 antibody 10C12.38.H6.87Y.58I IgG4 and each anti-IL-33 antibody listed in Table 5 (RG1-RG20) to block either human IL-33 or cyno IL-33 binding to human ST2 receptor was tested in a competitive binding ELISA. Briefly, 1 μg/ml of recombinant human ST2-Fc chimera protein prepared in coating buffer (50 mM sodium carbonate, pH 9.6) was coated on a 384-well MAXISORP® plate (Nalgene Nunc International; Rochester, N.Y.) and incubated overnight at 4° C. On the next day, non-specific binding was blocked with PBS containing 0.5% (w/v) solution of bovine serum albumin (BSA). Fixed concentrations of biotinylated human or cyno IL-33 prepared in assay buffer (25 mM PBS, pH 7.2, 0.1% BSA, 0.05% TWEEN®-20) were mixed with an equal volume of serially-diluted anti-IL-33 antibodies or assay buffer alone and incubated for 1 h at room temperature. The final assay concentrations of biotinylated human IL-33 or cyno IL-33 were 20 pM and 45 pM, respectively, and the final assay concentration of each antibody ranged from 0-300 nM. The pre-mixed solutions were added to the ST2-Fc coated plate and incubated for 1 h at room temperature. The binding of biotinylated IL-33 to coated ST2-Fc was detected by the sequential addition of Streptavidin Poly-HRP80 (Fitzgerald; Buckinghamshire, UK) and 3,3′,5,5′-tetramethyl benzidine (TMB) Microwell Peroxidase Substrate System (KPL; Gaithersburg, Md.). The absorbance (450 nm) was recorded using a […] ASCENT® plate reader (Thermo Scientific; Rockford, Ill.). The binding activity (%) of biotin-IL-33 to ST2 in the presence of anti-IL-33 was plotted as a function of antibody concentration. The data generated were fitted to a four-parameter equation to determine IC₅₀ values for each antibody (FIGS. 25A and 25B) using Prism software (Graphpad Software; La Jolla, Calif.). The maximum blocking (%) of each antibody was calculated as the ratio of the reduction in signal measured in the presence of antibody relative to the difference between the signal with IL-33 alone and background measurements.

Binder | Kd [1] [nM] | koff [1] [s⁻¹] | kon [1] [M⁻¹ s⁻¹] | t1/2 [1] [min] | Kd [2] [nM] | koff [2] [s⁻¹] | kon [2] [M⁻¹ s⁻¹] | t1/2 [2] [min] | IC50; SEAP reporter (OD 620), HEK-BLUE IL-33/IL-1beta cells, 5 pM cyno IL-33 (5pM cIL-33-Nhis) [3] [M] | IC50 [4] [nM] | Maximum Blocking [4] [%]
H4H9660P (antibody, V domains shown) VH: EVQLVESGGGLVQPGGSLRLSCAASGITLSSYGMSWVRQAPGKGLEWVASIFGSGGGPYYADSVKGRFTMSRDNSKNTLYLQMNSLRAEDTAVYYCAKDRYSGSYYGGFDYWGRGTLVTVSS VL: DIQMTQSPSSVSASVGDRVTITCRASQGITSWLAWYQQKPGKAPTLLIYAASSLQTGVPSRFSGSGSGTDFTLTISSLQPEHFATYYCQQANSFPPTFGGGTKVEIK | 2.69 | 0.00064 | 238000 | 18 | 7.93 | 0.00305 | 385000 | 4 | 4.8e-08 | 120 | 18
H4H9665P (antibody, V domains shown) VH: EVQLVESGGGLVQPGGSLRLSCAASGFTFSNYAMTWVRQAPGKGLEWVSTISGSGDNTYYADSVQGRFTISRGHSKNTLYLQMNSLRAEDTAVYYCAKPTYSRSWYGAFDFWGQGTMVTVSS VL: DIQMTQSPSSVSASVGDRVTITCRASQGISSWLAWYQQKPGKAPQLLIYAASRLQSGVPSRFWGSGSGTDFTLTISSLQPEDFATYYCQQANNFPFTFGPGTKVDIK | 0.976 | 0.000426 | 437000 | 27 | 1.96 | 0.00142 | 727000 | 8 | 1.1e-08 | 19 | 53
H4H9663P (antibody, V domains shown) VH: QVQLVQSGAEVKKPGASVKVSCKASGYTFTGHYMYWMRQAPGQGLEWMGWINPNSGGTNYAQKFQDRVTMTRDTSISTAYMELSRLRSDDTAVYYCARGRYGSSWYGGFEYWGQGTLVTVSS VL: DIQMTQSPSSVSASVGDRVTITCRASQGITSWLAWYQQKPGKAPNLLIYAAASLQSGVPSRFSGSGSGTDFTLTISSLQPEDFTTYYCQQAYSLPLTFGGGTKVEIK | 1.07 | 0.000545 | 511000 | 21 | 1.03 | 0.00202 | 1.96e+06 | 6 | 2.3e-08 | 26 | 61
H4H9671P (antibody, V domains shown) VH: EVQLVESGGGLVQPGGSLRLSCAASGFTLRSYFMTWVRQVPGKGLEGVSAISGISGGTYYTDSVKGRFTISRDNSKNTLFLQMNSLRAEDTAVYFCARTVYSSSYYGGFQHWGQGTLVTVSS VL: DIQMTQSPSSVSVSVGDRVTITCRASQGISSWLAWYQQKPGKAPKLLIYVASSLQSGVPSRFSGSGSGTDFTLTISSLQPEDFATYYCQQTNSFPLTFGGGTKVEIK | 1.72 | 0.000915 | 533000 | 13 | 3.66 | 0.00326 | 890000 | 4 | 5e-08 | 70 | 40
H4H9662P (antibody, V domains shown) VH: EVQLVESGGGLVQPGGSLRLSCAASGFTFSSYALTWVRQAPGKGLEWVSFISGSGGRPFYADSVKGRFTISRDNSKNMLYLQMNSLRAEDTAIYYCAKSLYTTSWYGGFDSWGQGTLVTVSS VL: DIQMTQSPSSVSASVGDRVTITCRASQGVVSWLAWYQQKPGKAPKLLIYAASSLQSGVPSRFSGSGSGTDFTLTISSLQPEDFATYYCQQSNSFPFTLGPGTKVDIK | 1.28 | 0.000313 | 245000 | 37 | 2.31 | 0.00112 | 484000 | 10 | 3.4e-08 | 66 | 47
